Data as given in publication PMC5628019.

Biological target: MTTR (recombinant monomeric version of TTR), as non-native oligomers (human) (UniProt P02766)

- incorporation compared to probe B-1: 90 % less
Substance: VAVHVF (truncated probe B-1, minimal binding competent sequence) (peptide)
